Here are results for 6 substances from article PMC7316778 (Nature Communications, 2020).

The target of the assay is FES^S700C (Homo sapiens, UniProt P07332, S700C). Briefly: PamChip microarray peptide phosphorylation. It is filed as biochemical. Also on record: human FES cDNA encoding residues 448–822 or human FER cDNA encoding residues 448–820 was amplified by PCR; made in house; host or cells: E. coli BL21(DE3), co-expressing YopH phosphatase. The conditions noted are these: peptide substrate phosphorylated by FES - S700C.
FES^S700C, sequence (P07332 448-822 S700C): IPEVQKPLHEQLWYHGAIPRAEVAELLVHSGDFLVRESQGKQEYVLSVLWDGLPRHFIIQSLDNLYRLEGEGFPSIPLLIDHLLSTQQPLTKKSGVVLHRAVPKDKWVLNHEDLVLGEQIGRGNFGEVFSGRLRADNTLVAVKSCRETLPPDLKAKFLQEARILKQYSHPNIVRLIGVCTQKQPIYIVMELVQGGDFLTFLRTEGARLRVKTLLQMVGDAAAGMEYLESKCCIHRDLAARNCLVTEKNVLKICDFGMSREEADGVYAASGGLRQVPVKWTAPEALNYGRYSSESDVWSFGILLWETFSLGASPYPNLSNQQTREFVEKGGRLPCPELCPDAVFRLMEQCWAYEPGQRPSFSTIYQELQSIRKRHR
For “VGFR2_1168_1180 (AQQDGKDYIVLPI; UniProt P35968 1168-1180, looked up, fragment)”, the “Relative phosphorylation (% of highest signal)” value is 9.5 % of highest signal. For “VGFR2_1207_1219_C1208S (VSDPKFHYDNTAG; UniProt P35968 1207-1219, looked up, variant C1208S)”, the “Relative phosphorylation (% of highest signal)” value is given as 1.3 % of highest signal. “VGFR3_1061_1073 (DIYKDPDYVRKGS; UniProt P35916 1061-1073, looked up, fragment)”: the “Relative phosphorylation (% of highest signal)” value was 0.1 % of highest signal. To “VINC_815_827 (KSFLDSGYRILGA; UniProt P18206 815-827, looked up, fragment)” belongs 0.6 % of highest signal; to “ZAP70_485_497 (ALGADDSYYTARS; UniProt P43403 485-497, looked up, fragment)”, 7.2 % of highest signal; to “ZBT16_621_633 (LRTHNGASPYQCT; UniProt Q05516 621-633, looked up, fragment)”, 1.1 % of highest signal.
